# Experimental data published in patent publication US20230001007A1, “Glycan-Interacting Compounds and Methods of Use” (Seagen Inc., priority 2017, published 2023).
# Assays:
# [1] = tested on: OVCAR3 human ovarian cancer cells; test: OVCAR3 cell line-derived subcutaneous xenograft; type: in vivo, Athymic Nude mouse; conditions: 20 mg/kg intraperitoneally once per week for three weeks
# Protocol: An Athymic Nude mouse subcutaneous xenograft mouse model was generated with OVCAR3 human ovarian cancer cells. Animals were treated with humanized anti-STn ADCs (1 mg/kg, 2.5 mg/kg, 5 mg/kg), an isotype ADC (1 mg/kg, 5 mg/kg), Paclitaxel (20 mg/kg) or vehicle alone. ADCs were administrated intravenously once per week for four weeks. Paclitaxel was administrated intraperitoneally once per week for three weeks. […] At the end of the study, tumor tissues were collected and analyzed using immunohistochemistry for expression of STn.
# [2] = tested on: Primary patient CRC samples; test: STn expression in primary patient CRC samples by flow cytometry; type: cell-based; conditions: % of viable CD45−/CD34− population
# From the text: Primary patient CRC samples were probed by flow cytometry with hSIA101 and two commercial antibodies B72.3 and CC49. All 10 samples tested were STn positive. In the table, % STn is expressed as % of viable CD45−/CD34− population. STn expression was often more robustly identified with hSIA101 than the commercial antibodies.
# [3] = tested on: MDA-MB-231 cells transfected for enhanced expression of STn (STn positive cells); test: ADC cytotoxicity assay ([…]-GLO); type: cell-based; conditions: MMAE-conjugated ADC versions; 72 hours; kill of STn positive cells
# Protocol: MMAE-conjugated ADC versions of hSIA101, hSIA102, and hSIA103 were assessed in an ADC cytotoxicity assay using MDA-MB-231 cells (parental or transfected for enhanced expression of STn). Parental cells were grown in Eagle's Minimum Essential Medium (EMEM) supplemented with 10% FBS, lx Pen/Strep and 45 μg/mL gentamycin. STn positive cells were grown in the same media except with the addition of 1 mg/mL G418 for antibiotic selection. Cells were seeded separately (4,000 cells/well for parental cells or 2,000/well for STn positive cells) in 96-well plates using proper media described above. Cells were grown overnight. After 16-20 hours, cells were treated with varying concentrations of test antibodies in triplicate (50 nM to 0.012 nM) for 72 hours. Then, cells were analyzed using an ADC […]-GLO® luminescent cell viability assay kit (Promega, Madison, Wis.) to determine the amount of ATP present, an indicator of metabolically active cells. The assay uses a single reagent that is added directly to the cultured cells in serum-supplemented medium. The reagent lyses the cells and generates a luminescent signal proportional to the amount of ATP present. Luminescent signals were analyzed and used to calculate the half-maximal inhibitory concentration (IC50) values for each antibody used based on the concentration required to kill STn positive cells at half-maximal levels (see Table 9).
# [4] = molecular target: bovine submaxillary mucin (BSM); test: BSM ELISA, periodate-sensitive STn binding
# Protocol: For BSM ELISA analysis, antibodies were screened over a concentration range of 0 to 100 nM on bovine submaxillary mucin (BSM) coated wells. A subset of wells were treated with mild periodate solution before antibody introduction to remove the side chain on terminal sialic acid residues (destroying the STn antigen). Optical densities of periodate and non-periodate-treated wells were determined and log transformed then fit to a nonlinear regression model to obtain a dose response curve. Optical density values obtained from periodate-treated wells were subtracted from non-periodate treated wells to obtain a periodate-sensitive STn binding curve and corresponding EC50 values.
# [5] = tested on: array glycans (AcSTn, GcSTn, Tn and others); test: Glycan array analysis; type: binding; set-up: key: Group 1: capable of binding AcSTn and GcSTn, if they bind to glycans 5, 6, 23 and 24; Group 2: capable of binding STn as well as some related structures that include an O-linkage to serine or threonine, if they bind to glycans 5, 6, 23, 24, 27 and 31; Group 3: capable of binding STn, but may also bind a broader set of related structures) if they bind glycans 5, 6, 23, 24, 17, 3, 19, 37, 27 and 31; Group 4: capable of binding to both AcSTn and GcSTn as well as the un-sialylated Tn antigen (therefore having broader specificity) if they bind to glycans 5, 6, 23, 24 and 47
# Protocol: Optimized glycan arrays are utilized to test antibody affinity and specificity for multiple glycans in a single experiment. Glycan arrays include 71 chemically synthesized and well-defined glycans, most of which are Neu5Ac and Neu5Gc glycan pairs.
# 300 ml of epoxy blocking buffer is prepared by combining 15 ml of 2 M Tris buffer (pH 8) with 0.9 ml of 16.6 M ethanolamine and 284.1 ml of distilled water. The solution is brought to a final pH of 9.0 with HCl. The solution is filtered using a […] nitrocellulose membrane. The epoxy buffer solution as well as 1 L of distilled water are pre-warmed to 50° C. Glass slides are arranged in a slide holder and quickly submerged in a staining tub with the warmed epoxy blocking buffer. Slides are incubated in the epoxy blocking buffer for 1 hour at 50° C. with periodic shaking to deactivate epoxy binding sites. Next, slides are rinsed and blocked with PBS with 1% OVA at 25° C. for one hour. Serum samples with polyclonal antibodies (1:1000) or purified monoclonal antibodies (1 ug/mL), are diluted in PBS with 1% OVA and added to the glycan array for one hour at 25° C. After extensive washing, binding of antibodies are detected by incubating glycan microarray slides with Cy3-conjugated anti-mouse IgG (Jackson Immunoresearch, West Grove, Pa.) for one hour. Slides are then washed extensively, dried and scanned with a Genepix 4000B scanner (Laser at 100%; gain at 350; 10 μm pixels). Raw data from scanned images are extracted using the Genepix software and analysis of raw data is carried out.
# Based on array analysis, antibodies are classified according to array glycan binding profile. Antibodies are classified as “Group 1” antibodies, capable of binding AcSTn and GcSTn, if they bind to glycans 5, 6, 23 and 24. Such antibodies are referred to as Pan-STn antibodies due to their ability to associate with a wider range of STn structures and the portion of STn indicated by the largest ellipse in FIG. 1A. […]
# MDA-MB-231-STn cells = test: Flow cytometry-based binding analysis; conditions: 0 to 300 nM, read-out: MDA-MB-231-STn cell binding [EC50 (nM)]
# Protocol: Humanized IgG1 antibodies, prepared as described above, were subjected to characterization analysis including flow cytometry-based binding analysis with MDA-MB-231-STn cells; binding analysis by BSM ELISA; and glycan array analysis.
# In flow cytometry-based binding studies, antibodies were screened over a concentration range of 0 to 300 nM, comparing binding to MDA-MB-231 cells with or without transfection-induced STn expression. Binding was determined using an anti-human APC conjugated secondary antibody and only live cells were considered (based on propidium iodide negative gating). 5,000 events were collected per sample on average. Data were analyzed using FlowJo software (Asland, Oreg.) and resulting APC means and % APC were obtained. […] Human isotype IgG1 antibody was used as an isotype negative control. Epidermal growth factor receptor (LA22, EMD Millipore, Billerica, Mass.) was used as a positive control.
molecule,measurement,setting,value
CC(=O)O[C@H]1C(=O)[C@@]2(C)[C@H]([C@H](OC(=O)c3ccccc3)[C@]3(O)C[C@H](OC(=O)[C@H](O)[C@@H](NC(=O)c4ccccc4)c4ccccc4)C(C)=C1C3(C)C)[C@]1(OC(C)=O)CO[C@@H]1C[C@@H]2O [Paclitaxel],Mean tumor volume,[1]; Day 1,161.2 mm^3
same,Mean tumor volume,[1]; Day 4,210.0 mm^3
same,Mean tumor volume,[1]; Day 9,370.0 mm^3
same,Mean tumor volume,[1]; Day 12,482.3 mm^3
same,Mean tumor volume,[1]; Day 15,620.4 mm^3
same,Mean tumor volume,[1]; Day 18,767.4 mm^3
same,Mean tumor volume,[1]; Day 23,971.6 mm^3
same,Mean tumor volume,[1]; Day 26,1133.0 mm^3
same,Mean tumor volume,[1]; Day 30,1277.8 mm^3
same,Mean tumor volume,[1]; Day 31,1385.2 mm^3
"B72.3: commercial anti-STn antibody (antibody, chains of the INN, looked up, V domains shown) VH: QVQLQQSDAELVKPGASVKISCKASGYTFTDHAIHWAKQKPEQGLEWIGYISPGNDDIKYNEKFKGKATLTADKSSSTAYMQLNSLTSEDSAVYFCKRSYYGHWGQGTTLTVSS VL: DIQMTQSPASLSVSVGETVTITCRASENIYSNLAWYQQKQGKSPQLLVYAATNLADGVPSRFSGSGSGTQYSLKINSLQSEDFGSYYCQHFWGTPYTFGGGTRLEIK",% STn+,"[2]; Sample 160093-2, Colon",18.9%
same,% STn+,"[2]; Sample 160101-2, Colon",5.8%
same,% STn+,"[2]; Sample 160102-2, Colon",14.7%
same,% STn+,"[2]; Sample 160104-2, Colon Met to Liver",46.6%
same,% STn+,"[2]; Sample 160115-2, Colon",13%
same,% STn+,"[2]; Sample 160127-2, Colon",14.4%
same,% STn+,"[2]; Sample 160149-1, Colon",10.5%
same,% STn+,"[2]; Sample 160151-1, Colon",6.8%
same,% STn+,"[2]; Sample 169068-1, Colon",7.4%
same,% STn+,"[2]; Sample 1601666, Colon",17.3%
"hSIA103 (antibody, V domains shown) VH: QVQLVQSGAEVKKPGASVKVSCKASGYTFTDHAIHWVRQAPGQGLEWMGYISPGNGDIKYNEKFKDRVTMTADKSSSTAYMQLRSLRSDDTAVYFCKRSLLALDYWGQGTLVTVSS VL: DIQMTQSPSSLSASVGDRVTITCKASQDVGTNIAWYQQKPGKAPKVLIYSASTRHTGVPSRFSGSGSGTDFTLTISSLQPEDFATYFCQQYSSFPLTFGQGTKVEIK",IC50,[3],1.3 nM
same,EC50,"[4]; periodate-sensitive STn binding curve, 0 to 100 nM",1.8 nM
same,Array glycan binding profile,[5],Group 1
same,EC50,MDA-MB-231-STn cells,0.3 nM
"hSIA102 (antibody, V domains shown) VH: QVQLVQSGAEVKKPGASVKISCKASGYTFTDHAIHWVRQAPGQGLEWIGYFSPGNDDIKYNEKFKVRATLTADKSSSTAYMELRSLRSDDTAVYFCKRSYYGDWGQGTLVTVSS VL: DIQMTQSPSSLSASVGDRVTITCRASENIYSHLAWYQQKPGKAPKLLVYGATNLASGVPSRFSGSGSGTQFTLTISSLQPEDFATYYCQHFWGAPFTFGQGTKVEIK",IC50,[3],2.6 nM
same,periodate sensitivity of binding in ELISA assays,[4],not periodate sensitive
same,Array glycan binding profile,[5],Group 4
same,EC50,MDA-MB-231-STn cells,0.1 nM
